From FireProtDB (doi:10.1093/protein/7.9.1089) come the findings set out here.

For this data set the following is noted: Bacillus amyloliquefaciens, pH 4.4, Thermal, DSC, Sodium acetate/Acetic acid 6.08 mM/13.92 mM/, reversible: yes (>95%), whole UniProt chain shown.

Several values for one entry are separate records, joined by “and”; a condition that tells them apart may be missing. Identical values can stand only once.

B1: Ribonuclease wild type, P00648 (protein)
chain: MMKMEGIALKKRLSWISVCLLVLVSAAGMLFSTAAKTETSSHKAHTEAQVINTFDGVADYLQTYHKLPDNYITKSEAQALGWVASKGNLADVAPGKSIGGDIFSNREGKLPGKSGRTWREADINYTSGFRNSDRILYSSDWLIYKTTDHYQTFTKIR
Consider B1, for which the Tm (usually the temperature at which the thermal transition is half complete) was 51.5 °C and 51.6 °C; the “unfolding enthalpy (calorimetric)” value came out at 128 kcal/mol; the “unfolding enthalpy (van 't Hoff)” value was 128 kcal/mol and 129 kcal/mol. In addition, under “25 °C”, the “heat capacity change of unfolding” value stood at 1.6 kcal/mol/K; the unfolding free energy is 8.69 kcal/mol and 8.66 kcal/mol.
